We go through five molecules from patent US20150037339A1 (Regeneron, published 2015).

T1: Activin A (human, UniProt P08476 311-426)
T1 construct: Homodimer of two βA subunits; bought from R&D Systems (#338-AC); also called inhibin-βA dimer; human Activin A
T1 sequence: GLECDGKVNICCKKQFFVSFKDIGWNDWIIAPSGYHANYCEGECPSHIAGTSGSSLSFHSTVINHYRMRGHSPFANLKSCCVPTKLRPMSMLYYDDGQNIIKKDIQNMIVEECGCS

B1: H4H10437P2 (antibody, human IgG4, V domains shown)
VH: EVQLVESGGGLVQPGRSLRLSCAASGFTFDDYAMHWVRQAPGKGLEWVSGISWNSGSIGYADSVKGRFTISRDNAKNSLYLQMNSLRAEDTALYYCAKDIMGNWDYFYGMDVWGQGTTVTVSS
VL: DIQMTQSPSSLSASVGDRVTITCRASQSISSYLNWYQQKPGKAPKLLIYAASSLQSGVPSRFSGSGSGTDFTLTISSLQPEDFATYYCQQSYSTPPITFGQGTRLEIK
B2: H4H10438P2 (antibody, human IgG4, V domains shown)
VH: EVQLVESGGGLVQPGRSLRLSCAASGFTFDDNAMHWVRQPPGKGLEWVSGISWNSGSIGYADSVKGRFTISRDNAKNSLYLQMNSLRAEDTALYYCAKDINDILTGYPLFDYWGQGTLVTVSS
VL: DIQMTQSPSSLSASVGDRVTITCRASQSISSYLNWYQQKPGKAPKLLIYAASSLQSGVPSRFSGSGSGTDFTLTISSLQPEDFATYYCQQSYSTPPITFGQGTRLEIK
B3: H4H10433P2 (antibody, human IgG4, V domains shown)
VH: EVQLVESGGGLVQAGRSLRLSCEASGFTFDDYGMHWVRQGPGKGLEWVSGISWNSGNIDYADSVKGRFTISRDNAKTSLYLQMNSLKTDDTALYFCAKDAVGFNWNYFLFDYWGQGTLVTVSS
VL: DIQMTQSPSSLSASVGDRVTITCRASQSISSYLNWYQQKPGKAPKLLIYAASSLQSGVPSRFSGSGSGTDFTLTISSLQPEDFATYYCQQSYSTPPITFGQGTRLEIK
B4: H4H10426P (antibody, human IgG4, V domains shown)
VH: EVQLVESGGNLVQSGRSLRLSCTASGFAFDDFAMHWVRQVPGKGLEWVSGISWNSDTIGYADSVKGRFTISRDNAQNSLFLQMDSLRAEDTALYYCVKDMVRGLIGYYYYGMDVWGQGTTVTVSS
VL: EIVLTQSPAILSLSPGERAILSCRASQSIYTYLSWYQQTPGRAPRLLIYETSSRATGIPARFIGSGSGTDFTLTISSLEPEDFAFYYCQHRSDWPPTFGQGTKLEIK
B5: H4H10424P (antibody, human IgG4, V domains shown)
VH: QVQLVESGGGVVQPGRSLRLSCAASGFTFSSYGMHWVRQAPGKGLEWVAVIWYDGSNKYNADSVKGRFTISRDNSKNTVYLQMNSLRAEDTAVYYCARARNYDILTGYYNLGMDVWGQGTTVTVSS
VL: DIQMTQSPSSLSASVGDRVTITCRASQGIRNDLGWYQQKPGKAPKRLIYAASSLQSGVPSRFSGSGSGTEFTLTISSLQPEDFATYYCLQHNSYPYTFGQGTKLEIK

The first assay addresses T1, Activin A. The assay is described as follows: SPR, captured mAb, 25C. How it is done:
(§1) Antibody-antigen association was monitored for 240 seconds while dissociation in buffer was monitored for 600 seconds. Kinetic association and dissociation rate constants were determined by processing and fitting the data using Scrubber software version 2.0c. Binding equilibrium dissociation constants (KD) and dissociative half-lives (t_{1/2}) were then calculated from the kinetic rate constants as: KD (M)=kd/kₐ and t_{1/2} (min)=[ln 2/(60*kd)]. (NB=no binding observed under the conditions used; NT=not tested).
As for B1, the “Activin A-20 nM (RU)” value came out at 30 RU; the affinity, expressed as Kd, was 0.134 nM; the koff is 0.00213 s⁻¹; the association rate constant (kon) was 1.58e+07 M⁻¹ s⁻¹. The molecule also gave a t1/2 of 5 min.
For B2, in that order: 25 RU, 0.0492 nM, 0.000588 s⁻¹, 1.2e+07 M⁻¹ s⁻¹ and 20 min.
The like results for B3 were, in that order, 16 RU, 0.0406 nM, 0.000577 s⁻¹, 1.42e+07 M⁻¹ s⁻¹ and 20 min.
For B4, in that order: 23 RU, 0.0595 nM, 0.0007 s⁻¹, 1.18e+07 M⁻¹ s⁻¹ and 16 min.
For the molecule B5, the “Activin A-20 nM (RU)” value came to 82 RU, the Kd was 0.229 nM, the koff stood at 0.000719 s⁻¹ and the association rate constant (kon) came out at 3.14e+06 M⁻¹ s⁻¹. The t1/2 turned out to be 16 min.

The target of the next assay is T1, Activin A. The experiment in a line: SPR, captured mAb, 37C. The protocol:
as §1
As for B1, the “Activin A-20 nM (RU)” value was found to be 20 RU, the Kd came to 0.229 nM, the off-rate (koff) was found to be 0.00468 s⁻¹ and the kon was determined as 2.04e+07 M⁻¹ s⁻¹. Further, the t1/2 turned out to be 2 min.
For B2, in that order: 18 RU, 0.127 nM, 0.00238 s⁻¹, 1.87e+07 M⁻¹ s⁻¹ and 5 min.
The like results for B3 were, in that order, 12 RU, 0.0537 nM, 0.00107 s⁻¹, 2e+07 M⁻¹ s⁻¹ and 11 min.
The like results for B4 were, in that order, 21 RU, 0.123 nM, 0.00198 s⁻¹, 1.61e+07 M⁻¹ s⁻¹ and 6 min.
B5: the “Activin A-20 nM (RU)” value amounted to 58 RU, binding was characterised by a dissociation constant (Kd) of 0.794 nM, the koff was found to be 0.00364 s⁻¹ and the kon was 4.59e+06 M⁻¹ s⁻¹. In addition, the t1/2 is 3 min.
